IntAct's records for PubMed 15466887

B1: Beta-secretase 1 (Homo sapiens), P56817 (parent)
chain: MAQALPWLLLWMGAGVLPAHGTQHGIRLPLRSGLGGAPLGLRLPRETDEEPEEPGRRGSFVEMVDNLRGKSGQGYYVEMTVGSPPQTLNILVDTGSSNFAVGAAPHPFLHRYYQRQLSSTYRDLRKGVYVPYTQGKWEGELGTDLVSIPHGPNVTVRANIAAITESDKFFINGSNWEGILGLAYAEIARPDDSLEPFFDSLVKQTHVPNLFSLQLCGAGFPLNQSEVLASVGGSMIIGGIDHSLYTGSLWYTPIRREWYYEVIIVRVEINGQDLKMDCKEYNYDKSIVDSGTTNLRLPKKVFEAAVKSIKAASSTEKFPDGFWLGEQLVCWQAGTTPWNIFPVISLYLMGEVTNQSFRITILPQQYLRPVEDVATSQDDCYKFAISQSSTGTVMGAVIMEGFYVVFDRARKRIGFAVSACHVHDEFRTAAVEGPFVTLDMEDCGYNIPQTDESTLMTIAYVMAAICALFMLPLCLMVCQWRCLRCLRQQHDDFADDISLLK
partner: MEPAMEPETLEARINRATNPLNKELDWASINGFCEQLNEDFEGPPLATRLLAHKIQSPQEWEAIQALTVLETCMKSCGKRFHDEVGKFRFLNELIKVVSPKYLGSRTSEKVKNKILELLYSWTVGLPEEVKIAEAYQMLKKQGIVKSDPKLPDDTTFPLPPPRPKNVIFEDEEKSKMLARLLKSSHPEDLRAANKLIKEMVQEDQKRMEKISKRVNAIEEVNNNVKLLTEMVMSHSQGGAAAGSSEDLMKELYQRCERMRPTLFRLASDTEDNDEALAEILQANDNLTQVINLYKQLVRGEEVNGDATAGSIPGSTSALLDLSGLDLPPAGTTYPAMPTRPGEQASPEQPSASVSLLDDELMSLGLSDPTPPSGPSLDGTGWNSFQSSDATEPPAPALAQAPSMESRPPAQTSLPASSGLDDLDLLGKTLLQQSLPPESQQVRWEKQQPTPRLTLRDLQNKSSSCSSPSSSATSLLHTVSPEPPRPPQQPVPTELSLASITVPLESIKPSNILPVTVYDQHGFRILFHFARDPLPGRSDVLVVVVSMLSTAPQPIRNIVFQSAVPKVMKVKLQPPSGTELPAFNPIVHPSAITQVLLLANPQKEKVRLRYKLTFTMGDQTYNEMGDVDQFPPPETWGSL

Variants of: B1
Details: with gga1_human GGA1, Q9UJY5

Row | effect of a mutation on the interaction | Variant
1 | decreasing interaction strength | S498A
2 | with no effect | S498D
